Laboratory results taken from publication PMC6450878.

Experiments:
[1] = target: eGFP-talin1 (human talin1) (UniProt Q9Y490); experiment: OPTIC assay (microscopy of GFP-talin1 recruitment to clustered CEACAM3-integrin fusion proteins in 293T cells); settings: 293 T cells co-transfected with CEACAM3-integrin fusion constructs and GFP-talin1, infected for 1 h with Pacific Blue-labeled Ngo, read off a plot
[2] = target: CEACAM3-integrin β3 fusion construct (CEA3-ITGB3) (human) (UniProt P05106); experiment: OPTIC (Opa protein triggered integrin clustering; recruitment of a fluorescent protein to the clustered chimeric receptor, confocal microscopy); 293T cells co-transfected with CEA3-ΔCT or a CEA3-ITGB chimera and the protein of interest fused to eGFP or mCherry, seeded on poly-L-lysine; infected 1 h with Pacific Blue-stained Opa52-expressing N. gonorrhoeae at MOI 20; fixed, stained for CEACAM3; R = maximum fluorescence at the clustered chimera / mean fluorescence of the cell; R > 2 defined as positive recruitment; n = 60 cells
[3] = target: CEACAM3-integrin β1 fusion construct (CEA3-ITGB1) (human) (UniProt P05556); experiment: as above
[4] = target: CEA3-ITGB1 C.ow (CEACAM3 fused to the cytoplasmic domain of Capsaspora owczarzaki integrin β homologue ITGB1 C.ow) (human | Capsaspora owczarzaki); experiment: as above
[5] = target: CEACAM3-integrin β5 fusion construct (CEA3-ITGB5) (human) (UniProt P18084); experiment: as above
[6] = target: CEA3-ITGB2 C.ow (CEACAM3 fused to the cytoplasmic domain of Capsaspora owczarzaki integrin β homologue ITGB2 C.ow) (human | Capsaspora owczarzaki); experiment: as above
[7] = target: CEACAM3-integrin β2 fusion construct (CEA3-ITGB2) (human) (UniProt P05107); experiment: as above
CEA3-ITGB1 Y783A (human) = CEA3-ITGB1 Y783A (human) (UniProt P05556); experiment: as above

Chain of UniProt Q9Y490 (Q9Y490 whole entry, looked up, the tested form may be a part): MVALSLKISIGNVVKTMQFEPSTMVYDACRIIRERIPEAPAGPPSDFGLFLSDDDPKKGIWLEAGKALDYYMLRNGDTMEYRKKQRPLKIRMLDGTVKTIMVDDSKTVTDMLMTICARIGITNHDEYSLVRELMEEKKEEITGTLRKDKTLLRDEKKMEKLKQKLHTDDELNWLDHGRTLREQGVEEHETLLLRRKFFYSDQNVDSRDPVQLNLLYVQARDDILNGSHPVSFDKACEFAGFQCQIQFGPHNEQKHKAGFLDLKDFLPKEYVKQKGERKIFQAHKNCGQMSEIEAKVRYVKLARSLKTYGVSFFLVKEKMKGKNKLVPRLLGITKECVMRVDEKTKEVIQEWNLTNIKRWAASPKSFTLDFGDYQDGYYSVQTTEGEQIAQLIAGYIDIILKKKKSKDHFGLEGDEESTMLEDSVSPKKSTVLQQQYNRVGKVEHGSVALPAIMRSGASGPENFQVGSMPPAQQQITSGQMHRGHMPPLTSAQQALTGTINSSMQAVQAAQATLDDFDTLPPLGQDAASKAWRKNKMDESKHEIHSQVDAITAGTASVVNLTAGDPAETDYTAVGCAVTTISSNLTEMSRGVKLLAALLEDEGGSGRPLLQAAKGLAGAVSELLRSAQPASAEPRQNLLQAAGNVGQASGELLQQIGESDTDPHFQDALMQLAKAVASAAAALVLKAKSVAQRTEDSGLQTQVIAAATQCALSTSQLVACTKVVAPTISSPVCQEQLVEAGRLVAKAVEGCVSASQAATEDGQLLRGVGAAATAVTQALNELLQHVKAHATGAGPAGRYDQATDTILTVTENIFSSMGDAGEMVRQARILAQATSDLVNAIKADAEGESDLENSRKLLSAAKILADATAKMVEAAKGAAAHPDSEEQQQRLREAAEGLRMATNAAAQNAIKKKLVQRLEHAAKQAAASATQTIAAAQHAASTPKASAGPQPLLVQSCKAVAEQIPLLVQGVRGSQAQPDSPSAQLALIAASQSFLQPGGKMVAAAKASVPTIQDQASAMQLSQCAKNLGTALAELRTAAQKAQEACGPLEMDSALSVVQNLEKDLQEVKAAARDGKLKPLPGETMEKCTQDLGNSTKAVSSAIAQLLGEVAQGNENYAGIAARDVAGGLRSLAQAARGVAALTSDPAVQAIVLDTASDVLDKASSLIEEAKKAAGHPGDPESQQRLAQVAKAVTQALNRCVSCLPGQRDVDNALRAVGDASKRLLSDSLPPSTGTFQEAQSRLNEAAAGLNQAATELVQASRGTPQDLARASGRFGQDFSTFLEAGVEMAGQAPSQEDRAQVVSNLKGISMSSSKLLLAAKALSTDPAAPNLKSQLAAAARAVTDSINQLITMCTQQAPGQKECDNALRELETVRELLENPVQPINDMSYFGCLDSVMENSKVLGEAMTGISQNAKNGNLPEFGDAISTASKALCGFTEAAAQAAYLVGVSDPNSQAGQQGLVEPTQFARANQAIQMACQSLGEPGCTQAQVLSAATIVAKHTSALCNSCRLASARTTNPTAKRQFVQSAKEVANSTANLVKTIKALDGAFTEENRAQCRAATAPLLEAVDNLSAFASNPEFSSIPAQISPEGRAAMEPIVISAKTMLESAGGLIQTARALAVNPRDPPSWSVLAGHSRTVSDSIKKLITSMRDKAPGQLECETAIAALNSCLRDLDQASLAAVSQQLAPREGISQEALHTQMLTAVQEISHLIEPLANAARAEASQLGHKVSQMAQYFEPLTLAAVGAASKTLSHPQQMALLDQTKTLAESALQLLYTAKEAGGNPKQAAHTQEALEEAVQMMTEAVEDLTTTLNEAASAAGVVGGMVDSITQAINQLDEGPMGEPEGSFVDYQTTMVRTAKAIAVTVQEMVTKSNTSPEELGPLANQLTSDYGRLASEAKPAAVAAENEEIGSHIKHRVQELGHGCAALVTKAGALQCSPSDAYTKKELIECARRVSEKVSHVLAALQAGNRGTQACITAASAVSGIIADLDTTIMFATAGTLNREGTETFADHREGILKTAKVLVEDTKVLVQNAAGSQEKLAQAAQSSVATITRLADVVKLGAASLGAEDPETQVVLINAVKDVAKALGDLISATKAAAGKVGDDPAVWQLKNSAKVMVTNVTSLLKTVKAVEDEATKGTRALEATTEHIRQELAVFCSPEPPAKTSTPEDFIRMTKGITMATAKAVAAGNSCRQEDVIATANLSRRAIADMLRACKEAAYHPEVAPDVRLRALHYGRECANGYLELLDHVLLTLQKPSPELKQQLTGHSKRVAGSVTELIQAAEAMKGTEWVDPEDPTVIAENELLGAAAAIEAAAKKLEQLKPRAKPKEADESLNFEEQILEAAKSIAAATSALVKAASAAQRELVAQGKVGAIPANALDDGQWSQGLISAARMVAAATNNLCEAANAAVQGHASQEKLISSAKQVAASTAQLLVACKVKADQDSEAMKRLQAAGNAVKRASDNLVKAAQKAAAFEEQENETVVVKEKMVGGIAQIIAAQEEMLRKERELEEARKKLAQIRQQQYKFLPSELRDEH

| Substance | recruitment ratio R (mean) [2] | recruitment ratio R (mean) [3] | percent of cells with R >= 2 [3] [%] | also measured |
| --- | --- | --- | --- | --- |
| CEA3-ITGB2 C.ow (CEACAM3 fused to the cytoplasmic domain of Capsaspora owczarzaki integrin β homologue ITGB2 C.ow) F1038A |  |  |  | other: talin recruitment ratio R ([1]; n = 60 cells from three …, parent: est. 2.6): 2.2; other: percentage of cells with talin recruitment R ≥ 2 ([1]; parent: est. 64): 59% |
| eGFP-tagged human kindlin-2 (from UniProt Q96AC1 1-680) (natural protein) | 2.4 | 3.9 |  |  |
| eGFP-talin1 (human talin1) (from UniProt Q9Y490 1-2541) (natural protein) | 3.78 | 3.41 | 85 | percent of cells with R >= 2 [2]: 85%; recruitment ratio R [4]: > 2; percent of cells with R >= 2 [5]: 62%; recruitment ratio R (mean) [5]: 2.1; recruitment ratio R [6]: > 2; percent of cells with R >= 2 [7]: 85% |
| mCherry |  | 1.5 |  |  |

Further lines, with some results ahead:

| recruitment ratio R (mean) [2] | recruitment ratio R (mean) [3] | percent of cells with R >= 2 [3] [%] | Substance | also measured |
| --- | --- | --- | --- | --- |
| 2.57 | 2.92 |  | eGFP-tagged paxillin (from UniProt P49023 1-591) (natural protein) |  |
|  | 2.84 | 85 | mCherry-talin1 (human talin1) (from UniProt Q9Y490 1-2541) (natural protein) | percent of cells with R >= 2 (CEA3-ITGB1 Y783A (human)): 17%; recruitment ratio R (mean) (CEA3-ITGB1 Y783A (human)): 1.8 |
